In article PMC11906611:
Read-outs that look alike come from different tables or passages of the source.

Columns and labels:
[1] = molecular target: FruR labelled with NT-647 (wild type, for MST) (Faecalibacterium prausnitzii A2-165); assay: MST
[2] = molecular target: FruR labelled with NT-647 (wild type, for MST) (Faecalibacterium prausnitzii A2-165); assay: MST; remark: listed apart in the source

HPr2, unlabeled (wild type, for MST) (natural protein)
Kd [1]: 1.07 nM
Kd [2]: 448 nM
